In data set [1] the target is OXPHOS complex III dimer (human (endogenous in fibroblasts, 143B and HepG2)) (UniProt P00156). Kind of data set: native gel or EMSA; BN-PAGE and Western blot of isolated mitochondria (fibroblasts, 143B cells) solubilised in 1% (v/v) Triton X-100; anti-UQCRC1 antibody. (In general: In EMSA bound probe runs differently from free probe, usually more slowly.)
Data set [2] has the same target. In words: native gel or EMSA; mtDNA-encoded proteins radiolabeled with [35S]-methionine/cysteine in 143B cells in the presence of cycloheximide, 2 h pulse, chase 0, 3 or 24 h; mitochondria isolated, BN-PAGE or 2D native-PAGE.
Data set [3] deals with the molecule itself. Kind of data set: native gel or EMSA; BN-PAGE and Western blot of isolated mitochondria (fibroblasts, 143B cells) solubilised in 1% (w/v) digitonin; anti-MCAD or anti-NDUFA9 antibody.
Data set [4] concerns the molecule itself. Kind of data set: native gel or EMSA; 35S-labelled in vitro translated protein incubated at 37 °C with freshly isolated 143B mitochondria (5 to 60 min), mitochondria solubilised in 1% (v/v) TX-100 or 1% (w/v) digitonin, BN-PAGE.

Turning to “OXPHOS complex III dimer (from UniProt P00156 1-380; P31930 35-480; P22695 15-453)”, the stoichiometry N in data set [1] and in data set [2] was 2 each time.

B1: Medium-chain acyl-Coenzyme A dehydrogenase (enzyme, human (endogenous in 143B and HepG2), UniProt P11310 26-421, looked up)
chain: KANRQREPGLGFSFEFTEQQKEFQATARKFAREEIIPVAAEYDKTGEYPVPLIRRAWELGLMNTHIPENCGGLGLGTFDACLISEELAYGCTGVQTAIEGNSLGQMPIIIAGNDQQKKKYLGRMTEEPLMCAYCVTEPGAGSDVAGIKTKAEKKGDEYIINGQKMWITNGGKANWYFLLARSDPDPKAPANKAFTGFIVEADTPGIQIGRKELNMGQRCSDTRGIVFEDVKVPKENVLIGDGAGFKVAMGAFDKTRPVVAAGAVGLAQRALDEATKYALERKTFGKLLVEHQAISFMLAEMAMKVELARMSYQRAAWEVDSGRRNTYYASIAKAFAGDIANQLATDAVQILGGNGFNTEYPVEKLMRDAKIYQIYEGTSQIQRLIVAREHIDKYKN
notes: Medium-chain acyl-CoA dehydrogenase (MCAD, EC 1.3.8.7); 421 amino acid precursor, processed in the mitochondrial matrix into a mature 396 amino acid (43.6 kDa) protein; also called MCAD; Medium-chain acyl-CoA dehydrogenase; source: endogenous, mitochondria isolated from 143B cells or HepG2 cells, solubilised in detergent
Take B1: the “stoichiometry N” value in data set [3] amounted to 4.

B2: Medium-chain acyl-Coenzyme A dehydrogenase (enzyme, UniProt P11310 26-421, looked up)
chain: B1 chain
modifications: [35S]-methionine/cysteine
notes: MCAD cDNA translated as the precursor; after import a proteinase K resistant mature form is seen; 421 amino acid precursor, mature 396 amino acids; Imported into mitochondria that hold endogenous MCAD, so the labelled ~175 kDa tetramer may be mixed with endogenous chains; also called MCAD; radiolabeled MCAD; source: in vitro translated (pGEM4Z, TnT Coupled Reticulocyte Lysate System), imported …
For the molecule B2, the “stoichiometry N” value in data set [4] was determined as 4.

The term stoichiometry N denotes a count of units in the complex or per binding partner.

For the origin of these results see publication PMC5760697, “Loss of the Mitochondrial Fatty Acid β-Oxidation Protein Medium-Chain Acyl-Coenzyme A Dehydrogenase Disrupts Oxidative Phosphorylation Protein Complex Stability and Function” (Scientific Reports, 2018).
